The target in the assay is Htz1^Flag (S. cerevisiae histone H2A.Z with a Flag epitope tag) (S. cerevisiae) (UniProt Q12692). As to the kind of experiment: co-IP.
Htz1^Flag (S. cerevisiae histone H2A.Z with a Flag epitope tag) (S. cerevisiae), sequence (Q12692 whole entry): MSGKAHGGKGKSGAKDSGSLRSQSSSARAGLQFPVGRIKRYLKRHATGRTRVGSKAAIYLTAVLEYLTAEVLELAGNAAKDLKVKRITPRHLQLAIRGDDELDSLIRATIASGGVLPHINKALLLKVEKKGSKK

histone H2A (S. cerevisiae, endogenous), sequence (P04911 whole entry): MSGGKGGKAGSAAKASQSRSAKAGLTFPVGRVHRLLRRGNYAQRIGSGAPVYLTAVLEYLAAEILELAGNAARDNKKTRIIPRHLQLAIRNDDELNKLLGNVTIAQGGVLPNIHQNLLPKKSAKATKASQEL

In the case of “histone H2A (S. cerevisiae, endogenous) (from UniProt P04911 1-132) (natural protein)”, the estimated molar ratio of H2A and Htz1^Flag in the Flag eluate is 0.49.

These data come from publication PMC7251641.
